Data reported in patent publication US20220409535A1, “BIOLOGICAL AGENT-EXOSOME COMPOSITIONS AND USES THEREOF” (The University of North Carolina at Chapel Hill, priority 2016, published 2022).
In brackets after ≈: the same amount, converted by molar mass.

Columns and labels:
3LL-M27 = assay: In vitro cytotoxicity (MTT), 3LL-M27; assay type: cell-based, murine; settings: Mus musculus; 3LL-M27, 48 hours
Procedure: (§1) Briefly, cancer cells (MDCKMDR1, MDCKwt, and 3LL-M27) were seeded at 5,000 cells/well in 100 μL of media in 96-well plates overnight. […] Following the incubation, the cells were washed and incubated with MTT reagent as described in Batrakova et al., Mol. Pharm. 3:113 (2006) Epub 2006/04/04. The cytotoxic activity of PTX was then evaluated using a standard MTT assay (Ferrari et al., J. Immunol. Meth. 131:165 (1990)). The absorbance at 570 nm was measured using a Shimadzu RF5000 fluorescent spectrophotometer. The survival values were determined in relation to control cells cultured in drug-free media. All experiments were repeated at least three times. SEM values were less than 10%.

MDCK wt = assay: In vitro cytotoxicity (MTT), MDCK wt; assay type: cell-based, canine; settings: Canis lupus familiaris, 48 hours
Procedure: as §1

MDCK MDR1 = assay: In vitro cytotoxicity (MTT), MDCK MDR1; assay type: cell-based, canine; settings: Canis lupus familiaris; MDCK MDR1, 48 hours
Procedure: as §1

sigma receptor = assay: Receptor competitive inhibition by free anisamide; assay type: cell-based, murine; settings: 3LL-M27 cells, one hour
Procedure: Receptor Competitive Inhibition. To determine whether AA-vectorized exosomes to sigma receptor were accumulated in cancer cells via receptor-mediated endocytosis, a receptor competitive inhibition study was carried out. For this purpose, first a lipophilic fluorescent dye, DiL, was incorporated into exosome membranes. Briefly, the supernatant of RAW 264.7 macrophage conditioned media free of cells and cellular debris was filtered with a 0.22 μm PES filter and incubated with DiL dye (4 μM) at 37° C. for 20 min. Following a 20-minute incubation, ExoQuick-TC™ exosome precipitation solution was added to the filtered supernatant, the mixture was vortexed, and incubated overnight at 4° C. Then, the mixture was vortexed again and subsequently centrifuged at 1500×g for 30 minute to pellet exosomes. The supernatant was discarded and the exosome pellet was re-suspended in PBS. Freshly-prepared fluorescently labeled exosomes or exosomes stored at −20° C. were used for all experiments.
Next, 3LL-M27 cells were seeded overnight at 50,000 cells/well in a 96-well plate. […] The fluorescence levels in cell suspensions were measured by a Shimadzu RF5000 fluorescent spectrophotometer, and adjusted for protein content analyzed by BCA Assay using the Pierce BCA Protein Assay Kit (Thermo Fisher Scientific, Waltham, Mass., USA). […]

hCMEC/D3 cells = assay: Flow cytometry of cell uptake of Mϕ exosomes and endocytosis markers; assay type: cell-based, human; settings: CM-DiI labeled exosomes, 4 h
Procedure: Flow Cytometry of Cell Uptake. hCMEC/D3 cells were grown in 24-well plates at […] for 4-5 days to reach confluence. Exosomes were labeled by adding CM-DiI dyes (2 μg/ml, Life Technologies) to the medium before the first […] pelleting step. In the uptake mechanism studies, the cells were pretreated with endocytosis inhibitors, carbohydrates or EGTA for 0.5 h, and then co-treated with CM-DiI labeled exosomes (0.6×10^10 exosomes/ml) for 4 h. The inhibition of endocytosis markers uptake was studied similarly. The endocytosis markers used were Alexa Fluor 488-Transferrin (10 μg/ml, Life technologies) for clathrin mediated endocytosis, Alexa Fluor 488-CTB (5 μg/ml, Life technologies) for caveolae mediated endocytosis, and FITC-Dextran (70 kDa, Sigma) (10 mg/ml) for macropinocytosis. The antibody block assays were done by co-incubating exosomes with antibodies or isotope controls at 100 μg/ml for 4 h. The cells were washed trice by PBS, detached by 0.25% trypsin/EDTA, collected by centrifugation at 100 g for 10 min, fixed with 4% paraformaldehyde for 10 min, and then resuspended in 0.35 ml PBS. Viable singlets were gated based on forward scatter and side scatter. 5,000-10,000 viable singlets were recorded for each sample on Becton Dickinson LSRII (BD Biosciences) using 488 nm and 532 nm lasers. Unless otherwise noted in figure legend, data are not normalized and reported as mean fluorescence±SD of 3 replicate wells.

ICAM-1 = ICAM-1 expression in hCMEC/D3 cells by western blot; assay type: cell-based, human
Procedure: Protein expression was determined by western blot using β-actin as loading control.

[1] = Brain delivery of BDNF and Mϕ exosomes complex; assay type: in vivo, mouse; settings: brain-inflamed mice, 10 min
Procedure: Animal Procedure. Mice were anesthetized with 40% urethane (4 g/kg) by intraperitoneal injection. Iodine labeled substances (4×10^5 cpm) were injected to the right jugular vein. At each time point, blood was collected from the left carotid artery, allowed to clot and then centrifuged at 5400 g for 10 min to collect serum. The whole brain and peripheral organs were removed and weighed immediately after blood sampling. The radioactivity of serum and tissues were counted and normalized to injected dose (ID) by volume (ml) or weight (g) (% ID/ml or % ID/g). An injection check representing ID was also counted (n=3).
PK data analysis. The noncompartmental PK parameters Vss (ml), Cl (ml/min), MRTlast and MRTinf (h) were estimated using Phoenix® WinNonlin® 6.3 (Pharsight). The Ki (slope) and Vi (y-intercept) were calculated from the linear portion of multiple-time regression analysis (Price et al., J. Pharmacol. Exper. Ther. 333:253 (2010); Patlak et al., J. Cerebral Blood Flow Metab. 3:1 (1983); Patlak et al., J. Cerebral Blood Flow Metab. 5:584 (1985)). Brain/serum ratio (Am/Cpt, ml/g) of co-injected BSA was used to correct for the vascular space or leakage (Banks et al, Brain Behav. Immun. 2010, 24:102 (2010)), and subtracted from that of tested substance to get the delta brain/serum ratio. […]
We further determined if Mϕ exosomes would ferry BDNF to the brain. […]

[2] = Patterson et al.; cited from earlier work
[3] = Size of catalase exosomal formulations by DLS and NTA; assay type: physicochemical; settings: DLS
Procedure: Characterization of different exoCAT formulations by (Dynamic Light Scattering) DLS, (Atomic Force Microscopy) AFM, Nanoparticle Tracking Analysis (NTA), and Hyperspectral microscopy: The effective hydrodynamic diameter of empty exosomes, or exosomes loaded with catalase was measured by DLS using the ZetaPlus' Zeta Potential Analyzer (Brookhaven Instruments, […]., USA) equipped with a 35 mW solid state laser (658 nm laser) as described in (Bronich et al., J. Amer. Chem. Soc. 122:8339 (2000); Vinogradov et al., Colloids Surfaces B-Biointerfaces 16:291 (1999)). The size, distribution, and number of particles for various exosomal formulations were also examined by NTA. For this purpose, exoCAT formulations were prepared at concentration 0.01 mg/mL, and evaluated using NanoSight 500, Version 2.2 (Wiltshire, United Kingdom). The morphology of exoCAT aggregates was investigated by AFM. Different exoCAT formulations were prepared in 50 mM phosphate buffer, pH 7.4 at total protein 10 μg/mL. A drop of the sample was placed on a glass slide, and dried under an argon flow. The AFM imaging was operated as described earlier (Zhao et al., Nanomedicine (Lond) 6:25 (2011)).

[4] = Preservation of catalase enzymatic activity and stability of exoCAT; assay type: physicochemical; settings: sonication conditions
Procedure: Enzymatic activity of catalase loaded into exosomes: The loading efficiency for different exoCAT formulations was assessed by catalase enzymatic activity using hydrogen peroxide decomposition assay (Zhao et al., Nanomedicine (Lond) 6:25 (2011)). For this purpose, different exoCAT formulations were incubated with pronase (0.1-0.2 mg/mL) for 3 hours at 37° C. Following the incubation, the aliquots were subjected for catalytic activity assessment as described above. The same assay was used to examine the preservation of catalase enzymatic activity in exosomes against proteases degradation. Stability of catalase was expressed in the residual activity vs. initial activity of catalase.

PC12 cells = assay: Cell viability (MTT) of PC12 cells exposed to 6-OHDA; assay type: cell-based, rat
Procedure: Cell viability assay: The protection of PC12 cell by exoCAT prepared by sonication was assessed by MTT assay. For this purpose, PC12 cells (1×10^5 cells/mL) were seeded into a 96-well plate and allowed to attach overnight. Then, the cells were exposed to 200 μM 6-OHDA and different exoCAT formulations, or catalase alone, or empty exosomes for four hours. Following the incubation, the cells were washed 3 times with ice-cold PBS, and incubated with the corresponding exoCAT formulations, or catalase alone, or empty exosomes for another 24 hours. Following the treatment, 20 μL MTT (5 mg/mL) was added into each well. After 3 hours of incubation at 37° C., the medium containing MTT was removed; and 100 μL DMSO was added into each well to dissolve the purple MTT formazan. Absorbances were read at λ=570 nm by a microplate reader, and cell viability was expressed as a percentage of viable cells in the treated groups compared to the untreated control group.

[5] = calculated from the molecular mass of the enzyme; cited from earlier work
6-OHDA-intoxicated mice = assay: Immunohistochemical and stereological analyses in 6-OHDA PD mouse model; settings: i.n.
Procedure: For the detection of microglia activation, tissue sections were incubated with primary monoclonal rat anti-mouse anti-CD11b antibodies (1:500 dilution), and secondary biotinylated goat anti-rat antibodies (Vector Laboratories, Burlingame, Calif., 1:200 dilution). […] In addition, levels of astrocytosis were assessed in the ventral midbrain region by fluorescent analysis of glial fibrillary acidic protein (GFAP) expression. For the GFAP staining, tissue sections were permeabilized with 0.01% Triton X-100 in TBS for 30 minutes and blocked for 1 hour with 10% normal goat serum (NGS, Vector Laboratories Inc., Burlingame, Calif.), then incubated with rabbit anti-GFAP primary polyclonal antibodies ab7260 (AbCam, Cambridge, Mass.) 1:100 dilution for 16 hours at 4° C. […] Immunoreactivity was evaluated by fluorescent analysis using confocal microscope Zeiss 510 Meta Confocal Laser Scanning Microscope (Jena, Germany), and ImageJ software (NIH, Bethesda, Mass., USA).

CC(=O)O[C@H]1C(=O)[C@@]2(C)[C@H]([C@H](OC(=O)c3ccccc3)[C@]3(O)C[C@H](OC(=O)[C@H](O)[C@@H](NC(=O)c4ccccc4)c4ccccc4)C(C)=C1C3(C)C)[C@]1(OC(C)=O)CO[C@@H]1C[C@@H]2O [PTX, paclitaxel]
IC50 (3LL-M27): 0.126 ± 0.0313 µg/mL (≈ 0.148 µM)
IC50 (MDCK wt): 0.429 ± 0.0634 µg/mL (≈ 0.502 µM)
IC50 (MDCK MDR1): > 10 µg/mL

COc1ccc(C(N)=O)cc1 [free AA, anisamide]
competitive inhibition of uptake by free AA (sigma receptor): not able completely inhibit exosome uptake

N[C@H]1C(O)O[C@H](CO)[C@@H](O)[C@@H]1O (stereo partly drawn) [glucosamine]
effect on uptake of Mϕ exosomes (hCMEC/D3 cells): inhibited the uptake at lower concentrations
ICAM-1 expression (ICAM-1): did not inhibit the expression of ICAM-1

B1: BDNF: brain derived neurotrophic factor (protein, UniProt P23560 19-247, looked up)
Neurotrophic factor BDNF …: APMKEANIRGQGGLAYPGVRTHGTLESVNGPKAGSRGLTSLADTFEHVIEELLDEDQKVRPNEENNKDADLYTSRVMLSSQVPLEPPLLFLLEEYKNYLDAANMSMRVRRHSDPARRGELSVCDSISEWVTAADKKTAVDMSGGTVTVLEKVPVSKGQLKQYFYETKCNPMGYTKEGCRGIDKRHWNSQCRTTQSYVRALTMDSKKRIGWRFIRIDTSCVCTLTIKRGR
brain accumulation of BDNF [1]: the difference was not significant
isoelectric point [2]: 9.99

B2: Catalase alone: Catalase from bovine liver (protein, UniProt P00432 2-527, looked up)
Catalase: ADNRDPASDQMKHWKEQRAAQKPDVLTTGGGNPVGDKLNSLTVGPRGPLLVQDVVFTDEMAHFDRERIPERVVHAKGAGAFGYFEVTHDITRYSKAKVFEHIGKRTPIAVRFSTVAGESGSADTVRDPRGFAVKFYTEDGNWDLVGNNTPIFFIRDALLFPSFIHSQKRNPQTHLKDPDMVWDFWSLRPESLHQVSFLFSDRGIPDGHRHMNGYGSHTFKLVNANGEAVYCKFHYKTDQGIKNLSVEDAARLAHEDPDYGLRDLFNAIATGNYPSWTLYIQVMTFSEAEIFPFNPFDLTKVWPHGDYPLIPVGKLVLNRNPVNYFAEVEQLAFDPSNMPPGIEPSPDKMLQGRLFAYPDTHRHRLGPNYLQIPVNCPYRARVANYQRDGPMCMMDNQGGAPNYYPNSFSAPEHQPSALEHRTHFSGDVQRFNSANDDNVTQVRTFYLKVLNEEQRKRLCENIAGHLKDAQLFIQKKAVKNFSDVHPEYGSRIQALLDKYNEEKPKNAVHTYVQHGSHLSAREKANL
Deff (nm) [3]: 9.5 nm
PdI [3]: 0.10
Deff (nm) ([3]; listed as naked catalase): 9.5 nm
catalase enzymatic activity upon sonication [4]: 14%
neuroprotective activity (neuronal survival, MTT) (PC12 cells): did not protect PC12 cells
theoretical diameter of a single protein globule [5]: 10.5 nm
anti-inflammatory and neuroprotective effect (6-OHDA-intoxicated mice): not effective in decreasing inflammation or providing neuroprotection
